These results are taken from patent US20160326233A1.

The target in the experiment is HBsAg on purified human serum HBV (virions used in the Tupaia hepatocyte neutralization assay) (Hepatitis B virus). The experiment can be described thus: cell-based or functional assay.

As for mouse monoclonal antibody MA18/7, the neutralization of HBV infection of primary Tupaia hepatocytes (newly produced HBsAg) stood at 100 µg/mL and the neutralization of HBV infection of primary Tupaia hepatocytes (newly produced HBsAg) (reciprocal dilution) came out at 10.
